Measured values reported in patent US20130123349A1.
Read-outs that look alike come from different tables or passages of the source.

Legend:
[1] = molecular target: T1, […] peptide, GPC-(GPP)5-[…]-(GPP)5-GPC-NH2, cross-linked
[2] = molecular target: T1, […] peptide, …; remark: listed apart in the source
[3] = molecular target: T2, GFOGER peptide, GPC(GPP)5GFOGER(GPP)5GPC, cross-linked; assay: SPR, Aegyptin over immobilized cross-linked GFOGER peptide, two-state model; Kd1
[4] = molecular target: T2, GFOGER peptide, …; assay: SPR, Aegyptin over immobilized cross-linked GFOGER peptide, two-state model
[5] = molecular target: T2, GFOGER peptide, …; assay: SPR, Aegyptin over immobilized cross-linked GFOGER peptide, two-state model; Ka1
[6] = molecular target: T1, […] peptide, …; assay: SPR, Aegyptin over immobilized cross-linked RGQOGVMGFO peptide, two-state model

B1: recombinant Aegyptin, O01949 20-273 (protein)
chain: RPMPEDEEPVAEGGDDDASGESEGEEETTDDAGGDGGEEENEGEEHAGDKDAGGEDTGKEENTGHDDAGEEDAGEEDAGEEDAGEEDAGEEDAEKEEGEKEDAGDDAGSDDGEEDSTGGDEGEDNAEDSKGSEKNDPADTYRQVVALLDKDTKVDHIQSEYLRSALNNDLQSEVRVPVVEAIGRIGDYSKIQGCFKSMGKDVKKVISEEEKKFKSCMSKKKSEYQCSEDSFAAAKSKLSPITSKIKSCVSSKGRHHHHHH
- IC50 [1]: 300 nM
- Kd [1]: 139 nM
- koff [2]: 0.013 s⁻¹
- kon [2]: 61900 M⁻¹ s⁻¹
- koff [3]: 0.943 s⁻¹
- Kd [4]: 2400 nM
- Kd2 (two-state model) [4]: 0.00261 s⁻¹
- second Ka of the two-state model [4]: 0.000366 M⁻¹ s⁻¹
- kon [5]: 406000 M⁻¹ s⁻¹
- Kd [6]: 139 nM
- Kd2 (two-state model) [6]: 0.00194 s⁻¹
- second Ka of the two-state model [6]: 0.000981 M⁻¹ s⁻¹
